Target: recombinant strep-tagged apo-APC/C, dephosphorylated (UniProt Q9H1A4)
Sequence of UniProt Q9H1A4 (Q9H1A4 whole entry, looked up): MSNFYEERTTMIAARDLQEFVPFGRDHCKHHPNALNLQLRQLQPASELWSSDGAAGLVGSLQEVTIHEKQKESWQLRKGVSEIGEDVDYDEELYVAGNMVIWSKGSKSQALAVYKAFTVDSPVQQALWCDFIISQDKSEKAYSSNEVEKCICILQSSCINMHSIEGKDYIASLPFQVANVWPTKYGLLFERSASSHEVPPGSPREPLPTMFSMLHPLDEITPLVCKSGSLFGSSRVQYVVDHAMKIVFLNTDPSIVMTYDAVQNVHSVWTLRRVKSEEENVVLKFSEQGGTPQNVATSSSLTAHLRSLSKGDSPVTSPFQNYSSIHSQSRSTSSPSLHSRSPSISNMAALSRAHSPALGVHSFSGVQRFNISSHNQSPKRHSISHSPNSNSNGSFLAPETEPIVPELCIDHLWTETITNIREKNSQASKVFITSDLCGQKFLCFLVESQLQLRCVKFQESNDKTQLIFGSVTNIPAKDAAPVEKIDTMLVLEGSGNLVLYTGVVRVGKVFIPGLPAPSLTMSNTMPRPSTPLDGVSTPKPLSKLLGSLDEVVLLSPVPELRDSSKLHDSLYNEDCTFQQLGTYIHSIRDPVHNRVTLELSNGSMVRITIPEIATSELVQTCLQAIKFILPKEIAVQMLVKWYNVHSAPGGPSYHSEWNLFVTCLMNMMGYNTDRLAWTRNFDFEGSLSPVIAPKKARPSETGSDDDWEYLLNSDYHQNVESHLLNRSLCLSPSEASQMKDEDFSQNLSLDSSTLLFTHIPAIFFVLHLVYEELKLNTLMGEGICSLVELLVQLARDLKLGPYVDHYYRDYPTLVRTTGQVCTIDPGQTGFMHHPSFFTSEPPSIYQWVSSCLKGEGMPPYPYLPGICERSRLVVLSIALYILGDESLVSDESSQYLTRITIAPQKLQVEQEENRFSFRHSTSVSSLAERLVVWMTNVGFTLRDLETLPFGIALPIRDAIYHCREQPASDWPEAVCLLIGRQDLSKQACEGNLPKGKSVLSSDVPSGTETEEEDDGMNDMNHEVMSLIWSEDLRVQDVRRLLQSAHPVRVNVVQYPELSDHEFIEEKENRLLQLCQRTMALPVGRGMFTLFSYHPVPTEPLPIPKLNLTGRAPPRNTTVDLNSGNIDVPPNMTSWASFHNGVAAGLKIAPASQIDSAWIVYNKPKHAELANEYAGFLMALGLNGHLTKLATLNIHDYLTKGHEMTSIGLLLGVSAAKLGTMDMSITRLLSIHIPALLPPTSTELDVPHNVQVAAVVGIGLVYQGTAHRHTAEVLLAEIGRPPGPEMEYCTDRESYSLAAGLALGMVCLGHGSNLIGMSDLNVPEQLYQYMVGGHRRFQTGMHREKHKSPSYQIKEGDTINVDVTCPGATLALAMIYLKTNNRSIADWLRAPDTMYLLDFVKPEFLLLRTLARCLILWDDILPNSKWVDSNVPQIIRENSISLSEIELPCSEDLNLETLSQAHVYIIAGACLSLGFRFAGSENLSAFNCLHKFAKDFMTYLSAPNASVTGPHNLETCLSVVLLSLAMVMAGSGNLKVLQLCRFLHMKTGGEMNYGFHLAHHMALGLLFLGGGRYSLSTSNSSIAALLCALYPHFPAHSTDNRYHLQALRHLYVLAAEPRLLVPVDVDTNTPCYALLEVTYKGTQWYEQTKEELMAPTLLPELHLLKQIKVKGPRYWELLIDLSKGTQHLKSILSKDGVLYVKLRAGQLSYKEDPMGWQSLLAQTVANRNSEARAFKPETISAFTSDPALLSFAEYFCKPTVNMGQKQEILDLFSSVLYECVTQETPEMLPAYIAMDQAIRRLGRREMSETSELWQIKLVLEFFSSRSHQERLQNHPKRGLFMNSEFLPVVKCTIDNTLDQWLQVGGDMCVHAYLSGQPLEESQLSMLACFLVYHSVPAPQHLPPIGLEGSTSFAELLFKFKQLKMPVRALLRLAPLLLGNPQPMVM

phosphosites on dephosphorylated recombinant APC/C after in vitro phosphorylation, by mass spectrometry: 28 phosphosites
Substance: CDK1/CKS1/cyclin B1^wt complex (CCC^wt) (from UniProt P06493 1-297; P61024 1-79; P14635 1-433)

Reference: PMC11747444
